According to patent US11306156:

Legend:
[1] = molecular target: tissue factor (TF) antigen (UniProt P13726); assay: SPR, Fab captured on anti-penta His, TF injected
[2] = molecular target: tissue factor (TF) antigen (UniProt P13726); assay: SPR KD against wild-type D3H44 Fab (reference KD 0.157 nM)
[3] = molecular target: tissue factor (TF) antigen (UniProt P13726); assay: SPR (ProteOn), Fab captured on anti-penta-His, TF analyte, 1:1 fit

Sequence of tissue factor (TF) antigen (P13726 33-251 limits assumed): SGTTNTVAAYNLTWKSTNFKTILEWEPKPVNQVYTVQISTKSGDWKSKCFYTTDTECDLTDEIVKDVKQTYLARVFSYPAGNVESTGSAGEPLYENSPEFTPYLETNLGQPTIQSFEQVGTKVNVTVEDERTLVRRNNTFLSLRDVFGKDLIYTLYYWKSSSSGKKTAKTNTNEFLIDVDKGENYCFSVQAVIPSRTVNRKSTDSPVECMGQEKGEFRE

| Substance | Change in KD with respect to wild type (-(log(KD design) - log(KD wt))) [1] | Kd [1] [nM] | Change in KD with respect to wild type (-(log(KD design) - log(KD wt))) [2] | Kd [3] [nM] |
| --- | --- | --- | --- | --- |
| D3H44 Fab heterodimer H L124R_S186K / L Q124E_V133G_S176D_T178D_T180E (H1L1 Fab of LCCA Set # 9461) | -0.23 | 0.26 |  |  |
| D3H44 Fab heterodimer H L124R_S186K / L V133G_S176D_T178D_T180E (H1L1 Fab of LCCA Set # 9473) | -0.07 | 0.18 |  |  |
| D3H44 Fab heterodimer H L124R_S186K / L V133G_S176D_T178E_T180E (H1L1 Fab of LCCA Set # 9489) | -0.17 | 0.23 |  |  |
| D3H44 Fab heterodimer, H: A139C_L143E_K145T_Q179E, L: F116C_Q124R_T178R (H1L1 Fab of LCCA set 9049) |  |  | -0.01 | 0.16 |
| D3H44 Fab heterodimer, H: L124A_Q179K, L: Q124E_V133W_S176T_T178L_T180E (H1L1 Fab of LCCA set 9099) |  |  | -0.09 | 0.19 |
| D3H44 Fab heterodimer, H: L124W_L143F_K145T_Q179E, L: S131K_V133A_S176T_T178L (H1L1 Fab of LCCA sets 9571 and 9572) |  |  | -0.21 | 0.26 |
| D3H44 Fab heterodimer, H: L143E_K145T_Q179D, L: Q124R_T178R (H1L1 Fab of LCCA set 9632) |  |  | 0.04 | 0.14 |
| D3H44 Fab heterodimer, H: L143E_K145T_Q179E, L: Q124K_T178R (H1L1 Fab of LCCA set 9648) |  |  | 0.05 | 0.14 |
| D3H44 Fab heterodimer, H: L143E_K145T_Q179E, L: Q124R_T178K (H1L1 Fab of LCCA set 9660) |  |  | -0.08 | 0.19 |

Further substances by falling Kd [3], results first:

| Change in KD with respect to wild type (-(log(KD design) - log(KD wt))) [1] | Kd [1] [nM] | Change in KD with respect to wild type (-(log(KD design) - log(KD wt))) [2] | Kd [3] [nM] | Substance |
| --- | --- | --- | --- | --- |
|  |  | -0.31 | 0.32 | D3H44 Fab heterodimer, H: Q179K, L: Q124E_Q160E_T180E (H1L1 Fab of LCCA set 9759) |
|  |  | -0.27 | 0.29 | D3H44 Fab heterodimer, H: Q179K, L: Q124E_Q160E_T178E (H1L1 Fab of LCCA set 9758) |
|  |  | -0.26 | 0.28 | D3H44 Fab heterodimer, H: L143K, L: Q124E_V133D (H1L1 Fab of LCCA set 9731) |
|  |  | -0.09 | 0.2 | D3H44 Fab heterodimer, H: L143R, L: Q124E_V133E (H1L1 Fab of LCCA set 9740) |
|  |  | -0.04 | 0.17 | D3H44 Fab heterodimer, H: L124A_L143F_Q179K, L: Q124E_V133W_S176T_T178L_T180E (H1L1 Fab of LCCA set 9096) |
|  |  | -0.03 | 0.17 | D3H44 Fab heterodimer, H: L124A_Q179K, L: Q124E_V133W_S176T_T178E_T180E (H1L1 Fab of LCCA set 9098) |
|  |  | -0.02 | 0.16 | D3H44 Fab heterodimer, H: L124A_L143F_Q179K, L: Q124E_V133W_S176T_T178E_T180E (H1L1 Fab of LCCA set 9092) |
|  |  | 0.02 | 0.15 | D3H44 Fab heterodimer, H: L143E_K145T_Q179E, L: Q124R_Q160K_T178R (H1L1 Fab of LCCA set 9654) |
|  |  | 0.05 | 0.14 | D3H44 Fab heterodimer, H: Q179K, L: Q124E_T178E (H1L1 Fab of LCCA set 9784) |
|  |  | 0.1 | 0.13 | D3H44 Fab heterodimer, H: Q179K, L: Q124E_T178E_T180E (H1L1 Fab of LCCA set 9786) |
